# Data: publication PMC3685266
# Key:
# [1] = target: SecA_(D337C/K482C), intramolecularly disulfide cross-linked (clamp closed) (E. coli) (UniProt P10408); test: steady-state ATPase activity titration; 0.15 μM SecA, 1 mM ATP, TKM buffer pH 7.5, 0.03% C12E9, 25°C, increasing purified detergent-solubilized SecYEG, with or without 10 mM DTT; apparent affinity from a ligand-binding fit
# [2] = target: SecA_(Δcys), SecA without cysteine residues (E. coli) (UniProt P10408); test: steady-state ATPase activity titration; 80 nM SecA, 1 mM ATP, TKM buffer, increasing vesicles reconstituted with purified SecYEG, with 0.6 μM proOmpA_(Δcys), with or without 10 mM DTT
substance,measurement,setting,value
SecYEG complex (from UniProt P0AGA2 1-443; P0AG96 1-127; P0AG99 1-110),fold increase in apparent affinity over the SecA (Δcys) control,[1],500 fold
same,fold increase in affinity in the presence of proOmpA,[2],5 fold
